These binders were tested against biotin-labeled SARS-COV-2 RBD domain (SARS-CoV-2, UniProt P0DTC2 319-541) (assay: SPR, Biacore T200, biotin-RBD on SA chip, antibody as analyte).

Binder	Kd [nM]
ABU-317 (antibody, V domains shown) VH: QVQLVESGGGVVQPGWSLRLSCAASGFTFSSFAMYWVRQAPGKGLEWVAVISYDGANKYYADSVKGRFTISRDNSKNTLYLQVNSLRVEDTAVYYCARGPDYYDTGGYFDLWGRGTLVTVSS VL: QSVLTQPPSVSAAPGQKVTISCSGSSSNIGNNYVSWYQQLPGTAPKLLIYDNNKRPSGIPDRFSGSKSGTSATLGITGLQTGDEADYYCGTWDSSLSAGVFGGGTKLTVL	< 20
ABU-289 (antibody, V domains shown) VH: QVQLVQSGAEVKKPGSSVKVSCKASGGTFSSYTISWVRQAPGQGLEWMGRIIPILGIANYAQKFQGRVTITADKSTSTAYMELSSLRSEDTAVYYCARGIVGATPGYFDYWGQGTLVTVSS VL: EIVMTQSPATLSVSPGERATLSCRASQSVSSNLAWYQQKPGQAPRLLIYGASTRATGIPARFSGSGSGTEFTLTISSLQSEDFAVYYCQQYNNWLTFGGGTKVEIK	< 10
ABU-305 (antibody, V domains shown) VH: QVQLVQSGAEVKKPGASVKVSCKASGYTFTSYGISWVRQAPGQGLEWMGWISAYNGNTNYAQKLQGRVTMTTDTSTSTAYMELRSLRSDDTAVYYCARDGHSAWGAFDIWGQGTMVTVSS VL: not shown	< 20
ABU-298 (antibody, V domains shown) VH: QVQLVQSGAEVKKPGASVKVSCKASGYTFTSYGISWVRQAPGQGLEWMGWISAYNGNTNYAQKLQGRVTMTTDTSTSTAYMELRSLRSDDTAVYYCARDESGSYYGDQAFDIWGQGTMVTVSS VL: not shown	< 20
ABU-316 (antibody, V domains shown) VH: QVQLVESGGGVVQPGRSLRLSCAASGFTFSSYGMHWVRQAPGKGLEWVAVISYDGSNKYYVDSVKGRFTISRDNSKNTLYLQMNSLRAEDTAVYYCAKDPYYYGSGSSNFFDYWGQGTLVTVSS VL: SYVLTQPPSVSVAPGKTARITCGGNNIGSKSVHWYQQKPGQAPVLVVYDDNDRPSGIPDRFSGSNSGNTATLTISRVEAGDEADYYCQVWDSSSDHYWVFGGGTKLTVL	< 10
ABU-319 (antibody, V domains shown) VH: QVQLVESGGGVVQPGRSLRLSCAASGFTFSSYGMHWVRQAPGKGLEWVAVIWYDGSNKYYADSVKGRFTISRDNSKNTLYLQMNSLRAEDTAVYYCAKGEGVYGSGSRYFLDYWGQGTLVTVSS VL: not shown	< 10
ABU-320 (antibody, V domains shown) VH: QVQLVESGGGVVQPGRSLRLSCAASGFTFSSYATHWVRQAPGKGLEWVAVISYDGSNKYHADSVKGRFTISRDNSKNTLYLQMNSLRAEDTAVYYCAREWSRGAVAGTGYFDYWGQGTLVTVSS VL: SYVLTQPPSVSVAPGKTARITCGGNNIGSKSVHWYQQKPGQAPVLVVYDDSDRPSGIPERFSGSNSGNTATLTISRVEAGDEADYYCQVWDSSGDHWVFGGGTKLTVL	< 10
ABU-288 (antibody, V domains shown) VH: QVQLQESGPGLVKPSQTLSLTCTVSGGSISSGLYHWSWIRQPAGKGLEWIGRIFSSGSTAYSPSLKSRVIISADTSKNQFSLKLSSVTAADTAVYYCARDSPLKFDSFGYPLYGMDVWGQGTTVTVSS VL: DIQMTQSPSSLSASVRDKVTITCRASQSISSCLNWYQQKPGKAPKVLIYAASSLQSGVPSRFSGSGSGTDFTLTISSVQPEDFATYYCQQSYSVPHTFGQGTKVEIK	< 1
ABU-312 (antibody, V domains shown) VH: EVQLLESGGGLVQPGGSLRLSCAASGFTFSTYAMSWVRQAPGKGLEWVSVISGSGGSTYYADSVKGRFTISRDNSKNTLYLQMNSLRAEDTAVYYCAKEYYYDSSGYYYREDAFDIWGQGTMVTVSS VL: DIQMTQSPSAMSASVGDRVTITCRASQGISNYLAWFQQKPGKVPKRLIYAASSLQSGVPSRFSGSGSGTEFTLTISSLQPEDFATYYCLQHNSYPRTFGQGTKVEIK	< 20

From US20230183322A1 (PEKING UNIVERSITY, published 2023)
